{"source": "the supplement of paper PMC12338614", "parents": {"B1": {"name": "library; numbered along this chain (parent)", "chain": "MEVVDPQQLGMFTEGELMSVGMDTFIHRIDSTEVIYQPRRKRAKLIGKYLMGDLLGEGSYGKVKEVLDSETLCRRAVKILKKKKLRRIPNGEANVKKEIQLLRRLRHKNVIQLVDVLYNEEKQKMYMVMEYCVCGMQEMLDSVPEKRFPVCQAHGYFCQLIDGLEYLHSQGIVHKDIKPGNLLLTTGGTLKISDLGVAEALHPFAADDTCRTSQGSPAFQPPEIANGLDTFSGFKVDIWSAGVTLYNITTGLYPFEGDNIYKLFENIGKGSYAIPGDCGPPLSDLLKGMLEYEPAKRFSIRQIRQHSWFRKKHPPAEAPVPIPPSPDTKDRWRSMTVVPYLEDLHGADEDEDLFDIEDDIIYTQDFTVPGQVPEEEASHNGQRRGLPKAVCMNGTEAAQLSTKSRAEGRAPNPARKACSASSKIRRLSACKQQ"}}, "note": "± gives the uncertainty stated by the source.", "data": [{"variants_of": "B1", "assay": "STK11 functional score (HeLa growth suppression), rescaled enrichment; synonymous median = 1, nonsense median = 0 (normalised score)", "settings": "with HeLa; variant type: missense", "summary_of_the_method": "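The functional score takes the post/pre-selection log ratio, corrects it to wild type, rescales it to synonymous and nonsense medians, and merges it over codons and replicate transfections, with error from bootstrapping. Counts came from tiled gDNA amplicons sequenced on NextSeq (~2 million reads per tile). The libraries were POPCode codon-randomised, codon-optimised STK11 integrated by Bxb1 at an AAVS1 landing pad in HeLa, three regions with three transfections each.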", "values": [{"variant": "P323Q", "STK11 functional score": "0.422 ± 0.67"}, {"variant": "P323R", "STK11 functional score": "1.01 ± 0.38"}, {"variant": "P323W", "STK11 functional score": "0.993 ± 0.6"}, {"variant": "E57R", "STK11 functional score": "1.13 ± 0.17"}, {"variant": "I35R", "STK11 functional score": "1.61 ± 0.21"}, {"variant": "I35W", "STK11 functional score": "1.61 ± 0.3"}, {"variant": "Q214R", "STK11 functional score": "1.45 ± 0.14"}, {"variant": "Y36T", "STK11 functional score": "1.04 ± 0.72"}, {"variant": "Y36I", "STK11 functional score": "1.03 ± 0.17"}, {"variant": "P6E", "STK11 functional score": "1.24 ± 0.47"}, {"variant": "R415C", "STK11 functional score": "1.25 ± 0.14"}, {"variant": "L400S", "STK11 functional score": "1.07 ± 0.21"}, {"variant": "S421T", "STK11 functional score": "1.12 ± 0.41"}, {"variant": "E120L", "STK11 functional score": "1.38 ± 0.28"}, {"variant": "E121F", "STK11 functional score": "0.824 ± 0.14"}, {"variant": "D365F", "STK11 functional score": "0.997 ± 0.31"}, {"variant": "E145M", "STK11 functional score": "1.3 ± 0.13"}, {"variant": "E357A", "STK11 functional score": "1.12 ± 0.49"}, {"variant": "E357Q", "STK11 functional score": "1.13 ± 0.47"}, {"variant": "L245K", "STK11 functional score": "0.475 ± 0.15"}, {"variant": "V110L", "STK11 functional score": "1.23 ± 0.14"}, {"variant": "P315V", "STK11 functional score": "1.17 ± 0.18"}, {"variant": "M136G", "STK11 functional score": "-0.14 ± 0.082"}, {"variant": "C151W", "STK11 functional score": "0.903 ± 0.12"}, {"variant": "K235L", "STK11 functional score": "1.24 ± 0.18"}, {"variant": "K83P", "STK11 functional score": "1.64 ± 0.41"}, {"variant": "K83S", "STK11 functional score": "1.7 ± 0.19"}, {"variant": "M289W", "STK11 functional score": "-0.296 ± 0.059"}, {"variant": "M289V", "STK11 functional score": "0.966 ± 0.44"}, {"variant": "A318M", "STK11 functional score": "0.577 ± 0.31"}, {"variant": "C73F", "STK11 functional score": "0.572 ± 0.11"}, {"variant": "E33V", "STK11 functional score": "0.509 ± 0.087"}, {"variant": "Q123K", "STK11 functional score": "0.3 ± 0.27"}, {"variant": "I322A", "STK11 functional score": "1.53 ± 0.16"}, {"variant": "G288P", "STK11 functional score": "0.0262 ± 0.088"}, {"variant": "G187I", "STK11 functional score": "1.62 ± 0.17"}, {"variant": "G187S", "STK11 functional score": "1.67 ± 0.44"}, {"variant": "G385L", "STK11 functional score": "0.869 ± 0.17"}, {"variant": "G385D", "STK11 functional score": "1.3 ± 0.37"}, {"variant": "Q220A", "STK11 functional score": "1.3 ± 0.12"}, {"variant": "W239A", "STK11 functional score": "0.388 ± 0.093"}, {"variant": "E351I", "STK11 functional score": "1.27 ± 0.15"}, {"variant": "A417E", "STK11 functional score": "1.22 ± 0.18"}, {"variant": "Q7G", "STK11 functional score": "0.637 ± 0.11"}, {"variant": "Q7L", "STK11 functional score": "1.25 ± 0.13"}, {"variant": "Q7R", "STK11 functional score": "1.38 ± 0.13"}, {"variant": "M18T", "STK11 functional score": "1.62 ± 0.27"}, {"variant": "M18A", "STK11 functional score": "1.69 ± 0.16"}, {"variant": "M18V", "STK11 functional score": "0.413 ± 0.24"}, {"variant": "I238T", "STK11 functional score": "1.31 ± 0.54"}, {"variant": "P294G", "STK11 functional score": "0.877 ± 0.15"}, {"variant": "Q364A", "STK11 functional score": "1.53 ± 0.15"}, {"variant": "R409D", "STK11 functional score": "1.09 ± 0.66"}, {"variant": "V66I", "STK11 functional score": "0.557 ± 1.1"}, {"variant": "G279H", "STK11 functional score": "1.6 ± 0.31"}, {"variant": "Y60M", "STK11 functional score": "1.64 ± 0.17"}, {"variant": "Y60C", "STK11 functional score": "0.482 ± 0.081"}, {"variant": "Y60R", "STK11 functional score": "1.51 ± 0.41"}, {"variant": "V143L", "STK11 functional score": "1.17 ± 0.15"}, {"variant": "V143Q", "STK11 functional score": "0.751 ± 0.082"}, {"variant": "G91A", "STK11 functional score": "0.99 ± 0.19"}, {"variant": "M392Y", "STK11 functional score": "1.04 ± 0.61"}, {"variant": "L67G", "STK11 functional score": "0.725 ± 0.17"}, {"variant": "T32S", "STK11 functional score": "1.45 ± 0.21"}, {"variant": "Y126H", "STK11 functional score": "0.681 ± 0.86"}, {"variant": "Y126F", "STK11 functional score": "0.719 ± 0.13"}, {"variant": "Y126A", "STK11 functional score": "1.21 ± 0.25"}, {"variant": "K191D", "STK11 functional score": "-0.393 ± 0.099"}, {"variant": "P179I", "STK11 functional score": "0.823 ± 0.39"}, {"variant": "L117V", "STK11 functional score": "0.689 ± 0.083"}, {"variant": "Q399W", "STK11 functional score": "1.43 ± 0.38"}, {"variant": "T230S", "STK11 functional score": "0.93 ± 0.097"}, {"variant": "V20R", "STK11 functional score": "1.56 ± 0.14"}, {"variant": "H168R", "STK11 functional score": "0.838 ± 0.47"}, {"variant": "P89A", "STK11 functional score": "1.1 ± 0.3"}, {"variant": "P89S", "STK11 functional score": "0.816 ± 0.17"}, {"variant": "K403S", "STK11 functional score": "0.892 ± 0.59"}, {"variant": "K403I", "STK11 functional score": "1.04 ± 0.46"}, {"variant": "K403H", "STK11 functional score": "1.53 ± 0.17"}, {"variant": "P280S", "STK11 functional score": "1.16 ± 0.34"}, {"variant": "P280D", "STK11 functional score": "1.45 ± 0.44"}, {"variant": "T250E", "STK11 functional score": "0.89 ± 0.1"}, {"variant": "T212E", "STK11 functional score": "1.65 ± 0.34"}, {"variant": "T212Q", "STK11 functional score": "1.65 ± 0.19"}]}]}
